Experimental data from patent US20230220021A1 (UNIVERSITY OF COPENHAGEN, published 2023).
[ ]: non-standard residue; d: D form.

B1: cyclic nNOS β-hairpin peptide L107K (peptide)
peptide: cyclo(THKETTFTGDGTPKTIRVTQ[dP]GQ)
SMILES: CC[C@H](C)[C@@H]1NC(=O)[C@H]([C@@H](C)O)NC(=O)[C@H](CCCCN)NC(=O)[C@@H]2CCCN2C(=O)[C@H]([C@@H](C)O)NC(=O)CNC(=O)[C@H](CC(=O)O)NC(=O)CNC(=O)[C@H]([C@@H](C)O)NC(=O)[C@H](Cc2ccccc2)NC(=O)[C@H]([C@@H](C)O)NC(=O)[C@H]([C@@H](C)O)NC(=O)[C@H](CCC(=O)O)NC(=O)[C@H](CCCCN)NC(=O)[C@H](Cc2c[nH]cn2)NC(=O)[C@H]([C@@H](C)O)NC(=O)[C@H](CCC(N)=O)NC(=O)CNC(=O)[C@H]2CCCN2C(=O)[C@H](CCC(N)=O)NC(=O)[C@H]([C@@H](C)O)NC(=O)[C@H](C(C)C)NC(=O)[C@H](CCCNC(=N)N)NC1=O
B2: cyclic nNOS β-hairpin peptide T123F (peptide)
peptide: cyclo(THLETTFTGDGTPKTIRVFQ[dP]GQ)
SMILES: CC[C@H](C)[C@@H]1NC(=O)[C@H]([C@@H](C)O)NC(=O)[C@H](CCCCN)NC(=O)[C@@H]2CCCN2C(=O)[C@H]([C@@H](C)O)NC(=O)CNC(=O)[C@H](CC(=O)O)NC(=O)CNC(=O)[C@H]([C@@H](C)O)NC(=O)[C@H](Cc2ccccc2)NC(=O)[C@H]([C@@H](C)O)NC(=O)[C@H]([C@@H](C)O)NC(=O)[C@H](CCC(=O)O)NC(=O)[C@H](CC(C)C)NC(=O)[C@H](Cc2c[nH]cn2)NC(=O)[C@H]([C@@H](C)O)NC(=O)[C@H](CCC(N)=O)NC(=O)CNC(=O)[C@H]2CCCN2C(=O)[C@H](CCC(N)=O)NC(=O)[C@H](Cc2ccccc2)NC(=O)[C@H](C(C)C)NC(=O)[C@H](CCCNC(=N)N)NC1=O
B3: cyclic nNOS β-hairpin peptide T116W (peptide)
peptide: cyclo(THLETTFTGDGWPKTIRVTQ[dP]GQ)
SMILES: CC[C@H](C)[C@@H]1NC(=O)[C@H]([C@@H](C)O)NC(=O)[C@H](CCCCN)NC(=O)[C@@H]2CCCN2C(=O)[C@H](Cc2c[nH]c3ccccc23)NC(=O)CNC(=O)[C@H](CC(=O)O)NC(=O)CNC(=O)[C@H]([C@@H](C)O)NC(=O)[C@H](Cc2ccccc2)NC(=O)[C@H]([C@@H](C)O)NC(=O)[C@H]([C@@H](C)O)NC(=O)[C@H](CCC(=O)O)NC(=O)[C@H](CC(C)C)NC(=O)[C@H](Cc2c[nH]cn2)NC(=O)[C@H]([C@@H](C)O)NC(=O)[C@H](CCC(N)=O)NC(=O)CNC(=O)[C@H]2CCCN2C(=O)[C@H](CCC(N)=O)NC(=O)[C@H]([C@@H](C)O)NC(=O)[C@H](C(C)C)NC(=O)[C@H](CCCNC(=N)N)NC1=O
B4: cyclic nNOS β-hairpin peptide T112D (peptide)
peptide: cyclo(THLETTFDGDGTPKTIRVTQ[dP]GQ)
SMILES: CC[C@H](C)[C@@H]1NC(=O)[C@H]([C@@H](C)O)NC(=O)[C@H](CCCCN)NC(=O)[C@@H]2CCCN2C(=O)[C@H]([C@@H](C)O)NC(=O)CNC(=O)[C@H](CC(=O)O)NC(=O)CNC(=O)[C@H](CC(=O)O)NC(=O)[C@H](Cc2ccccc2)NC(=O)[C@H]([C@@H](C)O)NC(=O)[C@H]([C@@H](C)O)NC(=O)[C@H](CCC(=O)O)NC(=O)[C@H](CC(C)C)NC(=O)[C@H](Cc2c[nH]cn2)NC(=O)[C@H]([C@@H](C)O)NC(=O)[C@H](CCC(N)=O)NC(=O)CNC(=O)[C@H]2CCCN2C(=O)[C@H](CCC(N)=O)NC(=O)[C@H]([C@@H](C)O)NC(=O)[C@H](C(C)C)NC(=O)[C@H](CCCNC(=N)N)NC1=O
B5: cyclic nNOS β-hairpin peptide T116N (peptide)
peptide: cyclo(THLETTFTGDGNPKTIRVTQ[dP]GQ)
SMILES: CC[C@H](C)[C@@H]1NC(=O)[C@H]([C@@H](C)O)NC(=O)[C@H](CCCCN)NC(=O)[C@@H]2CCCN2C(=O)[C@H](CC(N)=O)NC(=O)CNC(=O)[C@H](CC(=O)O)NC(=O)CNC(=O)[C@H]([C@@H](C)O)NC(=O)[C@H](Cc2ccccc2)NC(=O)[C@H]([C@@H](C)O)NC(=O)[C@H]([C@@H](C)O)NC(=O)[C@H](CCC(=O)O)NC(=O)[C@H](CC(C)C)NC(=O)[C@H](Cc2c[nH]cn2)NC(=O)[C@H]([C@@H](C)O)NC(=O)[C@H](CCC(N)=O)NC(=O)CNC(=O)[C@H]2CCCN2C(=O)[C@H](CCC(N)=O)NC(=O)[C@H]([C@@H](C)O)NC(=O)[C@H](C(C)C)NC(=O)[C@H](CCCNC(=N)N)NC1=O
B6: cyclic nNOS β-hairpin peptide T116P (peptide)
peptide: cyclo(THLETTFTGDGPPKTIRVTQ[dP]GQ)
SMILES: CC[C@H](C)[C@@H]1NC(=O)[C@H]([C@@H](C)O)NC(=O)[C@H](CCCCN)NC(=O)[C@@H]2CCCN2C(=O)[C@@H]2CCCN2C(=O)CNC(=O)[C@H](CC(=O)O)NC(=O)CNC(=O)[C@H]([C@@H](C)O)NC(=O)[C@H](Cc2ccccc2)NC(=O)[C@H]([C@@H](C)O)NC(=O)[C@H]([C@@H](C)O)NC(=O)[C@H](CCC(=O)O)NC(=O)[C@H](CC(C)C)NC(=O)[C@H](Cc2c[nH]cn2)NC(=O)[C@H]([C@@H](C)O)NC(=O)[C@H](CCC(N)=O)NC(=O)CNC(=O)[C@H]2CCCN2C(=O)[C@H](CCC(N)=O)NC(=O)[C@H]([C@@H](C)O)NC(=O)[C@H](C(C)C)NC(=O)[C@H](CCCNC(=N)N)NC1=O
B7: cyclic nNOS β-hairpin peptide T109S (peptide)
peptide: cyclo(THLESTFTGDGTPKTIRVTQ[dP]GQ)
SMILES: CC[C@H](C)[C@@H]1NC(=O)[C@H]([C@@H](C)O)NC(=O)[C@H](CCCCN)NC(=O)[C@@H]2CCCN2C(=O)[C@H]([C@@H](C)O)NC(=O)CNC(=O)[C@H](CC(=O)O)NC(=O)CNC(=O)[C@H]([C@@H](C)O)NC(=O)[C@H](Cc2ccccc2)NC(=O)[C@H]([C@@H](C)O)NC(=O)[C@H](CO)NC(=O)[C@H](CCC(=O)O)NC(=O)[C@H](CC(C)C)NC(=O)[C@H](Cc2c[nH]cn2)NC(=O)[C@H]([C@@H](C)O)NC(=O)[C@H](CCC(N)=O)NC(=O)CNC(=O)[C@H]2CCCN2C(=O)[C@H](CCC(N)=O)NC(=O)[C@H]([C@@H](C)O)NC(=O)[C@H](C(C)C)NC(=O)[C@H](CCCNC(=N)N)NC1=O
B8: cyclic nNOS β-hairpin peptide T105G (peptide)
peptide: cyclo(GHLETTFTGDGTPKTIRVTQ[dP]GQ)
SMILES: CC[C@H](C)[C@@H]1NC(=O)[C@H]([C@@H](C)O)NC(=O)[C@H](CCCCN)NC(=O)[C@@H]2CCCN2C(=O)[C@H]([C@@H](C)O)NC(=O)CNC(=O)[C@H](CC(=O)O)NC(=O)CNC(=O)[C@H]([C@@H](C)O)NC(=O)[C@H](Cc2ccccc2)NC(=O)[C@H]([C@@H](C)O)NC(=O)[C@H]([C@@H](C)O)NC(=O)[C@H](CCC(=O)O)NC(=O)[C@H](CC(C)C)NC(=O)[C@H](Cc2c[nH]cn2)NC(=O)CNC(=O)[C@H](CCC(N)=O)NC(=O)CNC(=O)[C@H]2CCCN2C(=O)[C@H](CCC(N)=O)NC(=O)[C@H]([C@@H](C)O)NC(=O)[C@H](C(C)C)NC(=O)[C@H](CCCNC(=N)N)NC1=O
B9: cyclic nNOS β-hairpin peptide T119N (peptide)
peptide: cyclo(THLETTFTGDGTPKNIRVTQ[dP]GQ)
SMILES: CC[C@H](C)[C@@H]1NC(=O)[C@H](CC(N)=O)NC(=O)[C@H](CCCCN)NC(=O)[C@@H]2CCCN2C(=O)[C@H]([C@@H](C)O)NC(=O)CNC(=O)[C@H](CC(=O)O)NC(=O)CNC(=O)[C@H]([C@@H](C)O)NC(=O)[C@H](Cc2ccccc2)NC(=O)[C@H]([C@@H](C)O)NC(=O)[C@H]([C@@H](C)O)NC(=O)[C@H](CCC(=O)O)NC(=O)[C@H](CC(C)C)NC(=O)[C@H](Cc2c[nH]cn2)NC(=O)[C@H]([C@@H](C)O)NC(=O)[C@H](CCC(N)=O)NC(=O)CNC(=O)[C@H]2CCCN2C(=O)[C@H](CCC(N)=O)NC(=O)[C@H]([C@@H](C)O)NC(=O)[C@H](C(C)C)NC(=O)[C@H](CCCNC(=N)N)NC1=O
B10: cyclic nNOS β-hairpin peptide T119S (peptide)
peptide: cyclo(THLETTFTGDGTPKSIRVTQ[dP]GQ)
SMILES: CC[C@H](C)[C@@H]1NC(=O)[C@H](CO)NC(=O)[C@H](CCCCN)NC(=O)[C@@H]2CCCN2C(=O)[C@H]([C@@H](C)O)NC(=O)CNC(=O)[C@H](CC(=O)O)NC(=O)CNC(=O)[C@H]([C@@H](C)O)NC(=O)[C@H](Cc2ccccc2)NC(=O)[C@H]([C@@H](C)O)NC(=O)[C@H]([C@@H](C)O)NC(=O)[C@H](CCC(=O)O)NC(=O)[C@H](CC(C)C)NC(=O)[C@H](Cc2c[nH]cn2)NC(=O)[C@H]([C@@H](C)O)NC(=O)[C@H](CCC(N)=O)NC(=O)CNC(=O)[C@H]2CCCN2C(=O)[C@H](CCC(N)=O)NC(=O)[C@H]([C@@H](C)O)NC(=O)[C@H](C(C)C)NC(=O)[C@H](CCCNC(=N)N)NC1=O
B11: cyclic nNOS β-hairpin peptide T116C (peptide)
peptide: cyclo(THLETTFTGDGCPKTIRVTQ[dP]GQ)
SMILES: CC[C@H](C)[C@@H]1NC(=O)[C@H]([C@@H](C)O)NC(=O)[C@H](CCCCN)NC(=O)[C@@H]2CCCN2C(=O)[C@H](CS)NC(=O)CNC(=O)[C@H](CC(=O)O)NC(=O)CNC(=O)[C@H]([C@@H](C)O)NC(=O)[C@H](Cc2ccccc2)NC(=O)[C@H]([C@@H](C)O)NC(=O)[C@H]([C@@H](C)O)NC(=O)[C@H](CCC(=O)O)NC(=O)[C@H](CC(C)C)NC(=O)[C@H](Cc2c[nH]cn2)NC(=O)[C@H]([C@@H](C)O)NC(=O)[C@H](CCC(N)=O)NC(=O)CNC(=O)[C@H]2CCCN2C(=O)[C@H](CCC(N)=O)NC(=O)[C@H]([C@@H](C)O)NC(=O)[C@H](C(C)C)NC(=O)[C@H](CCCNC(=N)N)NC1=O

target: T1, (7× His)-PSD-95-PDZ2 wild type (UniProt P78352 160-246); test: FP competition
T1 construct: domain: PDZ2; recombinant from E. coli; also called PSD-95-PDZ2 WT; not shown: 7x His tag
T1 sequence (P78352 160-246): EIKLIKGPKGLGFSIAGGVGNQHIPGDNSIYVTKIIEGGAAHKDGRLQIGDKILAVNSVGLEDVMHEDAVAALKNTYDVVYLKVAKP

| Ki | Relative Ki (Ki mut/Ki WT) | Binder |
| --- | --- | --- |
| 1200 nM | 0.8 | B1 |
| 1580 nM | 1.05 | B2 |
| 1040 nM | 0.69 | B3 |
| 950 nM | 0.63 | B4 |
| 510 nM | 0.34 | B5 |
| 1160 nM | 0.77 | B6 |
| 24500 nM | 2.51 | B7 |
| 4500 nM | 3 | B8 |
| 18900 nM | 12.6 | B9 |
| 7190 nM | 4.79 | B10 |
| 1360 nM | 0.91 | B11 |
